# Where a SMILES comes first, the peptide text is derived from it.
# T1: C5a receptor (Homo sapiens, UniProt P21730)
# T1 construct: Neutrophils were purified from human peripheral blood; endogenous in cells; host or cells: neutrophils from human peripheral blood
# T1 sequence (P21730 1-350): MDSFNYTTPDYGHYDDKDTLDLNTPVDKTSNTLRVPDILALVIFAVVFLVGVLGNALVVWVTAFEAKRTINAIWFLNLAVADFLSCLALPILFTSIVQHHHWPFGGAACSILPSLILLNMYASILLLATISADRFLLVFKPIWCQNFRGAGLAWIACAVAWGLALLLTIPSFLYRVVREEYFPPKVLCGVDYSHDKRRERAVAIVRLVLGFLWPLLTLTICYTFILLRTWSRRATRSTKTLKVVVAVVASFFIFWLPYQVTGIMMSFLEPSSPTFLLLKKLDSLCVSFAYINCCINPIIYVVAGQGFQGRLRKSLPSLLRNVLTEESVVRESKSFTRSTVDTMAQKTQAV
# B1: C5a(1-72,T1M,C27S,L72C) (protein, UniProt P01031 678-749, looked up, fragment T1M C27S L72C)
# chain: MLQKKIEEIAAKYKHSVVKKCCYDGASVNNDETCEQRAARISLGPRCIKAFTECCVVASQLRANISHKDMQC
# modifications: C5a anaphylatoxin
# B2: C5a(1-70,T1M,C27S,M70C) (protein, UniProt P01031 678-747, looked up, fragment T1M C27S M70C)
# chain: MLQKKIEEIAAKYKHSVVKKCCYDGASVNNDETCEQRAARISLGPRCIKAFTECCVVASQLRANISHKDC
# modifications: C5a anaphylatoxin
# B3: C5a(1-71,T1M,C27S,Q71C) (protein, UniProt P01031 678-748, looked up, fragment T1M C27S Q71C)
# chain: MLQKKIEEIAAKYKHSVVKKCCYDGASVNNDETCEQRAARISLGPRCIKAFTECCVVASQLRANISHKDMC
# modifications: C5a anaphylatoxin
# B4: C5a(1-71,T1M,C27S,Q71D) (protein, UniProt P01031 678-748, looked up, fragment T1M C27S Q71D)
# chain: MLQKKIEEIAAKYKHSVVKKCCYDGASVNNDETCEQRAARISLGPRCIKAFTECCVVASQLRANISHKDMD
# modifications: C5a anaphylatoxin
# notes: comparison agonist
# B5: C5a(1-71,T1M,C27S,H67F,Q71C) (protein, UniProt P01031 678-748, looked up, fragment T1M C27S H67F Q71C)
# chain: MLQKKIEEIAAKYKHSVVKKCCYDGASVNNDETCEQRAARISLGPRCIKAFTECCVVASQLRANISFKDMC
# modifications: C5a anaphylatoxin
# B6: C5a(1-71,T1M,C27S,Q71R) (protein, UniProt P01031 678-748, looked up, fragment T1M C27S Q71R)
# chain: MLQKKIEEIAAKYKHSVVKKCCYDGASVNNDETCEQRAARISLGPRCIKAFTECCVVASQLRANISHKDMR
# modifications: C5a anaphylatoxin
# notes: comparison agonist
# B7: C5a(1-71,T1M,C27S,Q71L) (protein, UniProt P01031 678-748, looked up, fragment T1M C27S Q71L)
# chain: MLQKKIEEIAAKYKHSVVKKCCYDGASVNNDETCEQRAARISLGPRCIKAFTECCVVASQLRANISHKDML
# modifications: C5a anaphylatoxin
# notes: comparison agonist
# B8: C5a(1-71,T1M,C27S,Q71S) (protein, UniProt P01031 678-748, looked up, fragment T1M C27S Q71S)
# chain: MLQKKIEEIAAKYKHSVVKKCCYDGASVNNDETCEQRAARISLGPRCIKAFTECCVVASQLRANISHKDMS
# modifications: C5a anaphylatoxin
# notes: comparison agonist
# B9: Analogue 22: dimeric form of analogue No. 8, disulfide linked through the C-terminal cysteines (protein, UniProt P01031 678-748, looked up, fragment T1M C27S Q71C)
# chain: MLQKKIEEIAAKYKHSVVKKCCYDGASVNNDETCEQRAARISLGPRCIKAFTECCVVASQLRANISHKDMC
# modifications: C5a anaphylatoxin disulfide-linked dimer
# notes: dimeric form of analogue No. 8, disulfide linked through the C-terminal cysteines
# B10: C5a(1-71,T1M,C27S) (protein, UniProt P01031 678-748, looked up, fragment T1M C27S)
# chain: MLQKKIEEIAAKYKHSVVKKCCYDGASVNNDETCEQRAARISLGPRCIKAFTECCVVASQLRANISHKDMQ
# modifications: C5a anaphylatoxin
# notes: comparison agonist
# B11: C5a(1-71,T1M,C27S,Q71H) (protein, UniProt P01031 678-748, looked up, fragment T1M C27S Q71H)
# chain: MLQKKIEEIAAKYKHSVVKKCCYDGASVNNDETCEQRAARISLGPRCIKAFTECCVVASQLRANISHKDMH
# modifications: C5a anaphylatoxin
# notes: comparison agonist
# Legend:
# C5a receptor [1] = molecular target: T1, C5a receptor; assay: C5a induced Ca++ rise in fura-2 loaded neutrophils (antagonist IC50 / agonist EC50); assay type: cell-based; conditions: for Concentration up to which tested and agonist activity not detected (calcium rise): highest concentration tested, agonist activity was not detected
# From the text: The antagonism of the instant C5a analogues may be quantified as an IC50 in the calcium rise assay disclosed in Agents and Actions 21:375-378 (1987), described in detail in Example 7.
# See Hugli et al., CRC Crit. Rev. Immunol. 1:321-326 (1981) and PCT WO 92/10205. A quantitative measure of this property may also be obtained using the calcium rise assay disclosed in Seligmann et al., supra, also described in Example 7. EC50 is a measure of agonistic activity. […] Applicants have not detected agonist activity of the instant C5a analogues up to a concentration of at Least about 8.0×10^-7 M, and preferably at least about 3.0×10^-6 M in the same calcium rise assay.
# Recombinant human C5a was dissolved in Hanks buffer containing 0.01% Tween-20, and all stock dilutions of C5a were made in this buffer. The acetoxymethyl ester of fura-2 (fura 2AM, Molecular Probes) was dissolved in DMSO. Neutrophils were purified from human peripheral blood by sedimentation in 6% hetastarch (HESPAN, DuPont, Waukegan, Ill.), followed by counter flow elutriation as described in Chapman-Kirkland et al., J. Immunol. Meth. 142:95-104 (1991). Purified cells (2×10^6 /ml) were mixed with 0.2 uM fura- 2AM and incubated for 30 min at 37° C. in HEPES buffered Hanks solution without calcium or magnesium. Fifteen minutes before the assay, the cell suspension was transferred to a curvette containing a stir bar and calcium was added to 1 mM. The cell suspension was incubated with stirring at 37° C. Assays were terminated within 5 h of cell purification and a standard control response was obtained periodically to insure that the cell responses were not changing over the time of the experiment. The amount of fluorescence was determined using an SLM 8000 spectrofluorometer (SLM-Aminco Instruments, Urbana, Ill.). Curvettes were placed in the fluorometer and after obtaining a baseline for 10 sec, the C5a receptor antagonists to be tested for antagonistic properties were added and any change in fluoresence excitation ratio of 340 nm/380 nm (emission of 510 nm) was measured. Forty seconds after analogue addition, a challenge dose of C5a was added to a final concentration of 100 pM and the resulting change in excitation ratio was measured.
# IC50 values were used as a measure of antagonist potency. These values are defined as the concentration of C5a analogue needed to reduce the calcium rise response of the 100 pM C5a challenge dose by 50%. EC50 values were used as a measure of agonist potency. […]
# C5a receptor [2] = molecular target: T1, C5a receptor; assay: Receptor binding assay: displacement of [125I]Bolton-Hunter-labelled C5a from PMNL membranes; conditions: Table 4, [125I]BH-C5a 4.0 pM, 120 min at 4° C., Cheng-Prusoff
# Method: C5a and C5a receptor antagonists were tested for their affinity for the C5a receptor. […] PMNLs were resuspended in Hanks balanced salt solution, without Ca^++ and Mg^++ and which contained 10 mM HEPES; at pH 7.3, 2.5 mM MgCl2, 100 units/ml DNAse I, 0.1 mM PMISF, 10 μg/ml aprotonin and 10 μg/ml leupeptin. They were then equilibrated at 400 psi for 20 min at 4° C. in a nitrogen cavitation bomb. After evacuation into 3 volumes 0.5 M KHCO3 containing 25 mM EDTA and the protease inhibitors listed above, the gelatinous material was removed with forceps and the mixture was centrifuged at 400×g for 10 min at 4° C. The resulting supernatant was centrifuged at 50,000×g for 60 min at 4° C. The pellets from the aliquots representing 200×10^6 cells were stored at -70° C. For binding studies, these membranes were resuspended at an equivalent of 20×10^6 cells/ml in 50 mM HEPES at pH 7.3, containing 1 mM CaCl2, 5 mM MgCl2, 0.1 mM PMSF, 0.1% bacitracin and 0.5% BSA.
# Nonspecific binding was determined in the presence of 10 nM unlabelled C5a. The binding reaction was initiated by the addition of the PMNL membranes and was continued for 120 min at 4° C. Bound and free radioactivity were separated by vacuum filtration through GF/C glass fiber filters (Whatman), pretreated for 90 min with 0.05% PEI (polyethyleneimine) using a Cell Harvester (Brandel, Gaithersburg, Md.). Filters were washed with 3×5 ml of ice-cold 5 mM Tris buffer at pH 7.4 and counted in a multiwell Gamma counter (Genesys). Data were analyzed using the non-linear regression analysis program, RS/1 (Bolt, Beranek and Newman, Boston) and expressed as IC50 values. The results are set forth below in Table 4 as Ki values using the Cheng-Presoff equation. See Braunwalder et al., supra
# [3] = system: New Zealand White rabbits (C5a-induced enhancement in vascular permeability); assay: Rabbit dermal model of inflammation ([125I]-BSA exudation after intradermal C5a); assay type: in vivo
# Method: All experiments were performed on male New Zealand White rabbits weighing 2.5-3.0 kg. The backs; of the rabbits were shaved and 40-50 skin sites were designated with markers of different colors. Different stimuli (i.e., C5a, C5a analogue, C5a+C5a analogue, vehicle control, etc.) were injected intradermally at 0.1 ml/site using a sterile, disposable, 26 gauge, 0.5 in. needle and 1.0 cc tuberculin syringe. I.D. injections were administered in replicates of six, roughly 45 minutes before euthanization. C5a alone was injected at a dose of 50 ng/site, and the C5a receptor antagonists were co-injected at various concentrations with the same dose of C5a. At 20 minutes prior to euthanization, 18-36 uCi of [125I]-labeled bovine serum albumin in 1.0 ml physiological saline were introduced into the systemic circulation via the marginal auricular vein. At 45 minutes, the rabbit was euthanized with an I.V. overdose of sodium pentobarbital. […]
# After death, the dorsal skin was excised and pinned to a wooden dissecting board. […] This procedure reduced variation among skin sites and decreased background radioactivity. […] Injection sites were then analyzed for their radioactive content using a Gamma Counter (Genesys).
# [4] = system: New Zealand White rabbits (C5a-induced neutropenia); assay: C5a-induced neutropenia in the rabbit; assay type: in vivo; conditions: i.v. bolus; for Inhibition of C5a-induced neutropenia vs vehicle-treated rabbits: 100 ng C5a i.v.
# Method: All experiments were performed on male New Zealand White rabbits weighing 2.5-3.0 kg. Rabbits were anesthetized with 10 mg/kg xylazine and 50 mg/kg ketamine administered in combination intramuscularly. A 25 gauge butterfly catheter was inserted in the lateral ear vein to use for infusions. Each blood sample (0.2 ml) was collected from the central ear artery into a plastic syringe fitted with a 25 gauge, 5/8 inch needle and charged with 7.5% EDTA as an anticoagulant. Blood was immediately expressed into a microcentrifuge tubes containing 10 microliters of 7.5% EDTA. An initial arterial blood sample (#1) was obtained and immediately thereafter vehicle or the C5a analogue of Example 8 was infused intravenously (bolus injection). Twenty seconds later, a second blood sample (#2) was obtained and twenty seconds thereafter 100 ng of C5a in 0.2 ml were infused intravenously (bolus injection). Twenty seconds later, a third blood (#3) sample was taken. Thirty minutes later, a second round of blood sample (#4)--20 seconds--C5a infusion--20 seconds--blood sample (#5) was performed. Blood samples were evaluated by automated hematologic analysis (Technicon H*1) using software specific for rabbit blood. Reductions in neutrophil counts (number per milliliter) induced by C5a(C5a-induced neutropenia, determined by comparing blood sample #3 to #2 and #5 to #4) were compared between vehicle-treated and C5a analogue-treated animals.
Molecule,Ki (C5a receptor [2]),Concentration up to which tested and agonist activity not detected (calcium rise) (C5a receptor [1]),further results
"CC[C@H](C)[C@H](N)C(=O)N[C@@H](CO)C(=O)N[C@@H](Cc1ccccc1)C(=O)N[C@@H](CCCCN)C(=O)N[C@@H](CC(=O)O)C(=O)N[C@@H](CCSC)C(=O)N[C@@H](CCC(N)=O)C(=O)N[C@@H](CC(C)C)C(=O)NCC(=O)N[C@@H](CCCNC(=N)N)C(=O)O [Decapeptide, reference compound] (H-ISFKDMQLGR-OH)",–,–,Agonist / antagonist character (C5a receptor [1]; result in words): significant agonist activity
B1,0.9 nM,> 1500 nM,–
B2,–,> 1000 nM,–
B3,0.2 nM,> 3000 nM,"ID50 (50% reduction in the radioactivity produced by C5a) ([3]; intradermal co-injection with 50 ng C5a/site): 70 ng/site; Pro-inflammatory reaction (agonist properties in vivo) ([3]; intradermal, 175 ng/site): did not cause a pro- inflammatory reaction; Inhibition of C5a-induced neutropenia vs vehicle-treated rabbits ([4]; 30-minute C5a challenge interval): 41%; Inhibition of C5a-induced neutropenia vs vehicle-treated rabbits ([4]; 40-second C5a challenge interval): 67%; Effect on baseline neutrophil counts (agonistic, C5a-like properties) ([4]; before C5a challenge): did not alter baseline neutrophil counts from normal"
B4,8.5 nM,–,–
B5,0.1 nM,> 800 nM,–
B6,0.35 nM,–,–
B7,0.035 nM,–,–
B8,7.5 nM,–,–
B9,0.04 nM,–,–
B10,3 nM,–,–
B11,0.15 nM,–,–
